The values that follow come from article PMC10928148.

Broadly, the EC50 is the midpoint of the concentration-response curve. Read a low EC50 as an effect from little substance.

The first assay addresses Delta variant S protein on plant-produced virus-like particles (SARS-CoV-2 (Delta variant)) (UniProt P0DTC2). Description: ELISA.
For the substance COVA2-15 IgG (antibody), the EC50 was determined as 9 nM. The substance “COVA2-15 secretory IgA1 (from UniProt P01591 23-159; P01833 19-603) (antibody)” showed an EC50 of 0.09 nM.

A further assay has the same target. Kind of assay: ELISA. This is another data set of the same source. A general note: An ELISA detects its analyte on a solid surface through an enzyme-linked reagent.
As for COVA2-15 IgG (antibody), the EC50 turned out to be 9.03 nM. Same read-out and setting: under COVA2-15 monomeric IgA1 (antibody) stands 1.95 nM; under COVA2-15 monomeric IgA2 (antibody), 2.06 nM; under “COVA2-15 secretory IgA1 (from UniProt P01591 23-159; P01833 19-764) (antibody)”, 0.086 nM. “COVA2-15 secretory IgA2 (from UniProt P01591 23-159; P01833 19-764) (antibody)” showed a half-maximal effective concentration (EC50) of 0.542 nM. This EC50 lies about 6.3-fold higher than the previous one.
